Blank lines part the entries; values can stand above or below the molecule they belong to.
Tests used:
[1] = target: CHIP-TPR domain (HsCHIP 21-154) (human) (UniProt Q9UNE7); test: NMR titration
[2] = target: T1, CHIP-TPR domain (HsCHIP 21-154) (human, UniProt Q9UNE7 21-154); test: crystal structure
T1 sequence (looked up): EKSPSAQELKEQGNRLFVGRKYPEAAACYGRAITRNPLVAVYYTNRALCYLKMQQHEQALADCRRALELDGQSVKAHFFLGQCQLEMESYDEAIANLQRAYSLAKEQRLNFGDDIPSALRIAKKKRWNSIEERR

Kd [1]: > 100 µM
Molecule: Hsc70-lid-tail-ΔGPTIEEVD (domain or fragment)

binding result [2]: binds
B1: HsHsc70_(541-646)Δ_(626-638) (domain or fragment, human, UniProt P11142 541-646, looked up)
chain: SLESYAFNMKATVEDEKLQGKINDEDKQKILDKCNEIINWLDKNQTAEKEEFEHQQKELEKVCNPIITKLYQSAGGMPGGMPGGFGPTIEEVD
